Measurements reported in patent publication US5968514.
Where “and” joins values, the source holds several entries; their conditions need not be identical. Equal entries are not always repeated.

Assays:
[1] = target: HLA-DR on Raji cells (human); experiment: antibody blocking of labelled peptide binding to Raji cells
[2] = target: class II MHC antigens on antigen-presenting cells of human peripheral mononuclear cells
[3] = target: class II MHC antigens on antigen-presenting cells of human peripheral mononuclear cells; remark: listed apart in the source
[4] = target: human class II MHC molecules on Raji cells
[5] = target: class II MHC antigens on antigen-presenting cells of human peripheral mononuclear cells; remark: listed apart in the source
[6] = target: human class II MHC molecules on Raji cells; experiment: competition with ^125 I-HIV-1 Nef(123-160) on Raji cells
[7] = target: murine class II MHC molecules on A20 cells (I-A^d and I-E^d); experiment: dose-response competition with ^125 I-SEA on A20 cells
[8] = target: murine class II MHC molecules on A20 cells (I-A^d and I-E^d)
[9] = target: DR1 on DR1-transfected L cells (Homo sapiens (Human)) (UniProt P01903)
[10] = target: human class II MHC molecules on Raji cells; remark: listed apart in the source
[11] = target: murine class II MHC molecules on A20 cells (I-A^d and I-E^d); experiment: competition with ^125 I-MMTV ORF(76-119) on A20 cells
[12] = target: human class II MHC molecules on Raji cells; experiment: competition with ^125 I-SEA on Raji cells

In the case of “Clone L243, a monoclonal antibody specific for HLA-DR”, the percent reduction of ^125 I-HIV-1 Nef(123-160) binding [1] is reported as 35%.

Substance “HIV-1 Nef protein (from UniProt P03406) (ligand)” has a stimulation index (SI) of proliferation of whole human PMNC [2] of 26.4 SI and an IFNγ (U/ml) in supernatants of whole PMNC, 96 h [3] of 1500 U/ml.

With HIV-1 Nef(123-160) (peptide) the percent reduction of ^125 I-SEA binding [4] was 20% and 40%, the stimulation index (SI) of human PMNC proliferation induced by Nef [5] was 3.9 SI and the stimulation index (SI) of human PMNC proliferation induced by SEA [5] was 6.2 SI. For the same substance, the IC50 [6] was 30000 nM.

With HIV-1 Nef(156-186) (peptide) the stimulation index (SI) of human PMNC proliferation induced by Nef [5] was 19.6 SI and the stimulation index (SI) of human PMNC proliferation induced by SEA [5] was 16.6 SI.

Work on SEE (from UniProt P12993) (ligand) yielded an IC50 [6] of 2000 nM.

Substance “staphylococcal enterotoxin A (from UniProt P0A0L2) (ligand)” has a fold more effective a competitor than MMTV ORF(76-119) [7] of 20 times, a CPM bound in the absence of competitors [8] of 6380 CPM and a CPM bound in the absence of competitors [9] of 5710 CPM. The CPM bound in the absence of competitors [10] was 31500 CPM, the IC50 [11] was 1800 nM and the stimulation index (SI) of proliferation of whole human PMNC [2] was 164 SI. It also gave an IC50 [12] of 200 nM and an IFNγ (U/ml) in supernatants of whole PMNC, 72 h [3] of 3000 U/ml.
